Columns and labels:
[1] = molecular target: T1, Zif268 wildtype (three zinc fingers, phage displayed) (Mus musculus, UniProt P08046 P08046:333-421); assay: ELONA; apparent Kd, phage ELISA, PBS/Zn, RT
[2] = molecular target: T1, Zif268 wildtype (three zinc fingers, …); assay: apparent Kd interpolated from microarray signal 0.150
[3] = molecular target: T1, Zif268 wildtype (three zinc fingers, …); assay: apparent Kd interpolated from microarray signal 0.085
[4] = molecular target: T1, Zif268 wildtype (three zinc fingers, …); assay: apparent Kd interpolated from microarray signal 0.320
[5] = molecular target: T1, Zif268 wildtype (three zinc fingers, …); assay: apparent Kd interpolated from microarray signal 0.372
[6] = molecular target: T1, Zif268 wildtype (three zinc fingers, …); assay: ELONA; negative control; apparent Kd; microarray signal 0.052

B1: Zif268 site TAG (dsDNA)
DNA 1: TATATAGCGTAGGCGTATATATCAAGTCAATCGGTCC
DNA 2: GGACCGATTGACTTGATATATACGCCTACGCTATATA
modifications: [none]
- Kd [1]: 6.7 nM

B2: Zif268 site GAG (dsDNA)
DNA 1: TATATAGCGGAGGCGTATATATCAAGTCAATCGGTCC
DNA 2: GGACCGATTGACTTGATATATACGCCTCCGCTATATA
modifications: [none]
- Kd [2]: 75 nM

B3: Zif268 site TCG (dsDNA)
DNA 1: TATATAGCGTCGGCGTATATATCAAGTCAATCGGTCC
DNA 2: GGACCGATTGACTTGATATATACGCCGACGCTATATA
modifications: [none]
- Kd [3]: 180 nM

B4: Zif268 site CGG (dsDNA)
DNA 1: TATATAGCGCGGGCGTATATATCAAGTCAATCGGTCC
DNA 2: GGACCGATTGACTTGATATATACGCCCGCGCTATATA
modifications: [none]
- Kd [4]: 35 nM

B5: Zif268 site CAG (dsDNA)
DNA 1: TATATAGCGCAGGCGTATATATCAAGTCAATCGGTCC
DNA 2: GGACCGATTGACTTGATATATACGCCTGCGCTATATA
modifications: [none]
- Kd [1]: 380 nM

B6: Zif268 site AGG (dsDNA)
DNA 1: TATATAGCGAGGGCGTATATATCAAGTCAATCGGTCC
DNA 2: GGACCGATTGACTTGATATATACGCCCTCGCTATATA
modifications: [none]
- Kd [1]: 54 nM

B7: Zif268 site GGG (dsDNA)
DNA 1: TATATAGCGGGGGCGTATATATCAAGTCAATCGGTCC
DNA 2: GGACCGATTGACTTGATATATACGCCCCCGCTATATA
modifications: [none]
- Kd [5]: 28 nM

B8: Zif268 site AAA (dsDNA)
DNA 1: TATATAGCGAAAGCGTATATATCAAGTCAATCGGTCC
DNA 2: GGACCGATTGACTTGATATATACGCTTTCGCTATATA
modifications: [none]
- Kd [6]: > 5000 nM

B9: Zif268 site TTG (dsDNA)
DNA 1: TATATAGCGTTGGCGTATATATCAAGTCAATCGGTCC
DNA 2: GGACCGATTGACTTGATATATACGCCAACGCTATATA
modifications: [none]
- Kd [1]: 71 nM

From patent US20040203002 (published 2004)
